The chains are these.
B1: P186-2B1 (antibody, V domains shown)
VH: EVQLVESGGGLVQPGGSLRLSCAASGFTVSSNYMSWVRQAPGKGLEWVSVIYSGGSTYYTDSVKGRFTISRHNSKNTLYLQMNSLRVEDTAVYYCARVGTNYINNSGWYFDYWGQGTLVTVSS
VL: not shown
B2: P5S-1D8 (antibody, V domains shown)
VH: EVQLVESGGGLVQPGRSLRLSCAASGFTFDDYAMYWVRQAPGKGLEWVSGVSWNSGTIGYADSVKGRFIISRDNAKNSLYLQMRSLRTEDTALYYCAKDSATRYYSGSDYTSYGMDVWGQGTTVTVSS
VL: QSALTQPASVSGSPGQSITVSCTGTSSDIGDYNYVSWYQQHPGKAPKLMIYDVSNRPSGASNRFSGSKSGNTASLTISGLQAEDEADYYCSSYTSSSTVVFGGGTKVTVL
B3: P10S-2F9 (antibody, V domains shown)
VH: QVTLRESGPALVKPTQTLPLTCTFSGFSLSTSGMCVSWIRQPPGKALEWLALIDWDDNKYYSTSLKARLTISKDTSKNQVVLTMTNMDPVDTATYYCARIPALLRYLDKFYYFGMDVWGQGTTVTVSS
VL: QSVLTQPPSVSAAPGQKVTISCSGSSPNIGNNYVSWYQQLPGTAPKLLIYDNNKRPSGIPDRFSGSKSGTSATLGITGLQTGDEAGYYCGTWDSSLSAVVFGGGTKLTVL
B4: P195-1E11 (antibody, V domains shown)
VH: EVQLVESGGGLVQPGRSLRLSCAASGFTFDDYAMHWVRQAPGKGLEWVSGISWNSGSIVYADSVKGRFTISRDNAKNSLYLQMNSLRAEDTALYYCAKDSEDCSSTNCYFDYWGQGTLVTVSS
VL: not shown
B5: P195-1B7 (antibody, V domains shown)
VH: QITLKESGPTLVKPTQTLTLTCTFSGFSLSTSGVGVGWIRQPPGKALEWLALIYWDDDKRYSPSLKSRLTITKDTSKNQVVLTMTNMDPVDTATYYCAHSGYSGYDWRGFDYWGQGTLVTVSS
VL: SYELTQPPSVSVSPGQTARITCSADALPKQYAYWYQQKPGQAPVLVIYKDSERPSGIPERFSGSSSGTTVTLTISGVQAEDEADYYCQSADSSGTYPVVFGGGTKLTVL
B6: P2-2H8 (antibody, V domains shown)
VH: QVQLVQSGAEVKKPGSSVKVSCKASGGTFSSYAISWVRQAPGQGLEWMGRIISMLGIANYAQKFQGRVTITADKSTSTAYMELSSLRSEDTAIYFCARDPDIHYDSSGYSHYYGMDVWGQGTTVTVSS
VL: DIVMTQSPLSLPVTPGEPASISCRSSQSLLHGNGYNYLDWYLQRPGQSPQLLIYLGSNRASGVPGRFSGSGSGTDFTLKISRVEAEDVGVYYCMQALQTLITFGQGTQLEIK
B7: P2-2D8 (antibody, V domains shown)
VH: EVQLVESGGGLVKPGGSLRLSCAASGFTFSNAWMNWVRQAPGKGLEWVGRIKSKADGGTTDYAAPVKGRFTISRDDSKNTLYLQMNSLKTDDTAVYYCTTTRAVAATLNFLFSYYDGMDVWGQGTTVTVSS
VL: NFMLTQPHSVSESPGKTVTISCTGSSGSIASNYVQWYQQRPGSAPTTVIYEDNQRPSGVPDRFSGSIDSSSNSASLTISGLKTEDEADYYCQSYDSNNHLVLFGGGTKLTVL
B8: P104-1G2 (antibody, V domains shown)
VH: QLQLQESGPGLVKPSETLSLTCTVSGGSISSSSYYWGWIRQPPGKGLEWIGSIYYGGSTYYNPSLKSRVTISVDTSKNQFSLKLSSVTAADTAVYYCARSLGIFDYWGQGTLVTVSS
VL: DIQMTQSPSSLSASVGDRVTITCRASQGISNSLAWYQQKPGKAPKLLLYGASTLESGVPSRFSGSGSATDYTLTISSLQPEDFATYYCQQYYSNPPYTFGQGTKLEIK
B9: P2-1D5 (antibody, V domains shown)
VH: QVQLVESGGGVVQPGRSLRLSCAASGFTFSSSVMHWVRQAPGKGLEWVALIWYDGSNKYYADSVKGRFTISRDNSKNTLYLQMNSLRAEDTAVYYCARDREITMTTFDYWGQGTLVTVSS
VL: not shown
B10: P5-2H11 (antibody, V domains shown)
VH: EVQLVESGGGLIQPGGSLRLSCAASEFTVSSNYMSWVRQAPGKGLEWVSIIYSGGSTFYADSVKGRFTISRDNSQNTLYLQMNSLRAEDTAVYYCARTLPLYGDYFDYWGQGTLVTVSS
VL: QSVLTQPPSVSGAPGQRVTISCTGSSSNIGAGYDVHWYQQLPGTAPKLLIYGNNNRPSGVPDRFSGSKSGTSASLAITGLQPEDEADYYCQSYDSSLSVVFGGGAKLTVL
B11: P10S-1D8 (antibody, V domains shown)
VH: QMQLVQSGPEVKKPGTSVKVPCKASGFTFSSSAVQWVRQARGQRLEWIGWIVVGSGNTNYAQKFQERVTITRDMSTSTAYMELSSLRSEDTAVYYCAAPGCNSTSCYDGFDIWGQGTMVTVSS
VL: not shown
B12: P2S-2A6 (antibody, V domains shown)
VH: EVQLVESGGGLVQPGRSLRLSCAASGMTFDDYDMHWVRQVPGKGLEWVSGISWNGGIIGYADSVKGRFTISRDNAKTSLYLQMNSLRAEDTALYYCAKVAGRGDYDYYYGMDVWGQGTTVTVSS
VL: QSVLTQPPSVSGAPGQRVTISCTGSSSNIGAGYDVHWYQQLPGTAPKLLIYGNNNRPSGVPDRFSGSKSGTSASLAITGLQAEDEADYYCQSYDSSLSGSVFGGGTKLTVL
B13: P5S-3D10 (antibody, V domains shown)
VH: EVQLVESGGDLVQPGRSLRLSCAASGFTFSLFAMSWVRQAPGKGLEWVSTISGRGDSSYYADSVKGRFTISRDNSKNTLYLQITGLRAEDTAVYYCAKGVDGDYGNWFDPWGQGALVTVSS
VL: SYVLTQPPSVSVAPGKTARITCGGNNIGSKSVHWYQQKPGQAPVLVIYYDSDRPSGIPERISGSNSGNTATLTISRVEAGDEADYYCQVWHSSSVIFGGGTKLTVL
B14: P195-2A3 (antibody, V domains shown)
VH: QVTLRESGPALVKPTQTLTLTCTFSGFSLSTSGMCVSWIRQPPGKALEWLALIDWDDDKYYSTSLKTRLTISKDTSKNQVVLRMTNMDPVDTATYYCARSWVGGGLDVWGQGTTVTVSS
VL: not shown
B15: P186-1H2 (antibody, V domains shown)
VH: EVQLVESGGGLVQPGRSLRLSCAASGFTFGDYAMHWVRQSPGKGLEWVSGITWNSAGIGYADSVKGRFTISRDNAKNSLYLQMNSLRVEDTALYYCAKAPKWGGVDYLFDYWGQGTLVTVSS
VL: not shown

For one test, the target named is recombinant RBD protein of wild-type SARS-CoV-2 (ELISA antigen) (SARS-CoV-2 wild-type, UniProt P0DTC2).
Take B1: the binding result is on record as “binds”.

B2: the binding result is on record as “binds”.

Regarding B3, the binding result was “binds”.

Take B4: the binding result is “binds”.

For the molecule B5, the binding result is given as “binds”.

Take B6: the binding result was “binds”.

As for B7, the binding result is “binds”.

As to B8, the binding result is “binds”.

For the molecule B9, the binding result was “binds”.

For the molecule B10, the binding result is given as “binds”.

Regarding B11, the binding result is “binds”.

For B12, the binding result is given as “binds”.

In the case of B13, the binding result is reported as “binds”.

As to B14, the binding result was “binds”.

For B15, the binding result is “binds”.

A further test concerns the target recombinant wild-type SARS-CoV-2 S trimer (ELISA antigen) (SARS-CoV-2 wild-type, UniProt P0DTC2).
For B1, the binding result is on record as “binds”.

On to B2, for which the binding result is recorded as “binds”.

Turning to B3, the binding result is “binds”.

As for B4, the binding result is “binds”.

Take B5: the binding result is listed as “binds”.

With B6, the binding result is on record as “binds”.

B7: the binding result was “binds”.

Regarding B8, the binding result is “binds”.

Take B9: the binding result is “binds”.

For B10, the binding result is “binds”.

As to B11, the binding result was “binds”.

For B12, the binding result is “binds”.

B13: the binding result is “binds”.

With B14, the binding result is reported as “binds”.

B15: the binding result was “binds”.

Values taken from paper PMC10063446 (Nature Immunology, 2023).
